Like-named read-outs stand apart in the source and are kept apart here.
Columns and labels:
[1] = target: SARS-CoV-2 WA-1 S-2P spike protein (SARS-CoV-2) (UniProt P0DTC2)
[2] = target: SARS-CoV-2 Omicron BA.1 spike protein (on pseudotyped lentivirus) (SARS-CoV-2) (UniProt P0DTC2)
[3] = target: SARS-CoV-2 Omicron BA.2.12.1 spike protein (on pseudotyped lentivirus) (SARS-CoV-2) (UniProt P0DTC2)
[4] = target: SARS-CoV-2 Omicron BA.2.75 spike protein (on pseudotyped lentivirus) (SARS-CoV-2) (UniProt P0DTC2)
[5] = target: SARS-CoV-2 Omicron BA.2.75.2 spike protein (on pseudotyped lentivirus) (SARS-CoV-2)
[6] = target: SARS-CoV-2 Omicron BA.4.6 spike protein (on pseudotyped lentivirus) (SARS-CoV-2)
[7] = target: SARS-CoV-2 Omicron BA.4/BA.5 spike protein (on pseudotyped lentivirus) (SARS-CoV-2) (UniProt P0DTC2)
[8] = target: SARS-CoV-2 Omicron BJ.1 spike protein (on pseudotyped lentivirus) (SARS-CoV-2) (UniProt P0DTC2)
[9] = target: SARS-CoV-2 Omicron BQ.1.1 spike protein (on pseudotyped lentivirus) (SARS-CoV-2) (UniProt P0DTC2)
[10] = target: SARS-CoV-2 Omicron XBB spike protein (on pseudotyped lentivirus) (SARS-CoV-2) (UniProt P0DTC2)
[11] = target: SARS-CoV-2 Omicron BA.4.6 spike protein (on pseudotyped lentivirus) (SARS-CoV-2); remark: listed apart in the source
[12] = target: SARS-CoV-2 Omicron BA.4/BA.5 spike protein (on pseudotyped lentivirus) (SARS-CoV-2) (UniProt P0DTC2); remark: listed apart in the source

Question: With CB6 (antibody) as the substance, how does the % inhibition of ACE2 binding [1] read?
Answer: 93%

Question: S2H97 (antibody) was tested. Which % inhibition of ACE2 binding [1] did it give?
Answer: -3%

Question: What does the source list for LY-CoV1404 (antibody)?
Answer: neutralization IC50 [2]: 2 ng/mL; neutralization IC80 [2]: 5 ng/mL; neutralization IC50 [3]: 1 ng/mL; neutralization IC80 [3]: 4 ng/mL; neutralization IC50 [4]: 3 ng/mL; neutralization IC80 [4]: 15 ng/mL; neutralization IC50 [5]: 1 ng/mL; neutralization IC80 [5]: 5 ng/mL; neutralization IC50 [6]: 0.4 ng/mL; neutralization IC80 [6]: 1 ng/mL; neutralization IC50 [7]: 1.4 ng/mL; neutralization IC80 [7]: 3 ng/mL; neutralization IC50 [8]: > 10000 ng/mL; neutralization IC80 [8]: > 10000 ng/mL; neutralization IC50 [9]: > 10000 ng/mL; neutralization IC80 [9]: > 10000 ng/mL; neutralization IC50 [10]: > 10000 ng/mL; neutralization IC80 [10]: > 10000 ng/mL; neutralization IC80 [11]: 1.4 ng/mL; neutralization IC50 [12]: 1 ng/mL; % inhibition of ACE2 binding [1]: 99%

Question: How did the % inhibition of ACE2 binding [1] turn out when BD55-5514 (antibody) was run?
Answer: 99%

Question: For DH1047 (antibody), which % inhibition of ACE2 binding [1] is on record?
Answer: 113%
